Results taken from publication PMC5604967, “Defining the molecular basis of interaction between R3 receptor-type protein tyrosine phosphatases and VE-cadherin” (PLoS ONE, 2017).

Legend:
[1] = target: VE-cadherin-VC (VE-cadherin ectodomain and transmembrane domain fused to the C-terminal Venus fragment) (human) (UniProt P33151); test: split reporter (BiFC, NanoBiT); Venus BiFC (VN155 I152L with VC155 A206K) in live HEK293T cells, 0.5 ug of each construct, confocal microscopy 24 h after transfection; mean BiFC intensity per cell or BiFC/DeepRed ratio, compared with control pairings
Sequence of VE-cadherin-VC (VE-cadherin ectodomain and transmembrane domain fused to the C-terminal Venus fragment) (human) (P33151 26-625): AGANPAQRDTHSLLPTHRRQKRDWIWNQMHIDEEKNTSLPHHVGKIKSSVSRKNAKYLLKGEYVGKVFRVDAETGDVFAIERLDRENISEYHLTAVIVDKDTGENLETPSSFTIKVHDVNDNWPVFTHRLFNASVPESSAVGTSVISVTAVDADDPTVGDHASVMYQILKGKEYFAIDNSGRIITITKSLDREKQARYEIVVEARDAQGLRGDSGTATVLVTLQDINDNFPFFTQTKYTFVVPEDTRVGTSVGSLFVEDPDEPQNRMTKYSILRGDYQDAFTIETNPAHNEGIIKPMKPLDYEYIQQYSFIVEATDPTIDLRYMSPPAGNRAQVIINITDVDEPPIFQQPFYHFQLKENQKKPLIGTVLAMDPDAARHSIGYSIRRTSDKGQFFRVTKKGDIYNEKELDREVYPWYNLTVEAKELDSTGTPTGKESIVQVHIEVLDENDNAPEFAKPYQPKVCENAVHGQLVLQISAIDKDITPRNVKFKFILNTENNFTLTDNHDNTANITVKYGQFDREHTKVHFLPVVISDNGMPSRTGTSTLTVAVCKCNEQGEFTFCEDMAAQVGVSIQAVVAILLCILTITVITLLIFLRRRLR

bFos BiFC construct = target: T1, bFos BiFC construct (UniProt P01100 118-210); test: split reporter (BiFC, NanoBiT); validation of the quantitative BiFC analysis with bJun/bFos (positive) and bJun/bΔFos (negative); BiFC/DeepRed ratio and mean BiFC intensity; details in S1-S4 Figs; settings: partners not purified
T1 construct: transcription factor Fos, the construct called bFos
T1 sequence (P01100 118-210): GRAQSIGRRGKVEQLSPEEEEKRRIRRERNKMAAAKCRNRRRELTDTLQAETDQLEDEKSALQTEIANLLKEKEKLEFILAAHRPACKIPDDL

Sequence of VE-PTP-VN (vascular endothelial protein tyrosine phosphatase, ectodomain and transmembrane domain, fused to the N-terminal Venus fragment) (domain or fragment) (P23467 1-1647): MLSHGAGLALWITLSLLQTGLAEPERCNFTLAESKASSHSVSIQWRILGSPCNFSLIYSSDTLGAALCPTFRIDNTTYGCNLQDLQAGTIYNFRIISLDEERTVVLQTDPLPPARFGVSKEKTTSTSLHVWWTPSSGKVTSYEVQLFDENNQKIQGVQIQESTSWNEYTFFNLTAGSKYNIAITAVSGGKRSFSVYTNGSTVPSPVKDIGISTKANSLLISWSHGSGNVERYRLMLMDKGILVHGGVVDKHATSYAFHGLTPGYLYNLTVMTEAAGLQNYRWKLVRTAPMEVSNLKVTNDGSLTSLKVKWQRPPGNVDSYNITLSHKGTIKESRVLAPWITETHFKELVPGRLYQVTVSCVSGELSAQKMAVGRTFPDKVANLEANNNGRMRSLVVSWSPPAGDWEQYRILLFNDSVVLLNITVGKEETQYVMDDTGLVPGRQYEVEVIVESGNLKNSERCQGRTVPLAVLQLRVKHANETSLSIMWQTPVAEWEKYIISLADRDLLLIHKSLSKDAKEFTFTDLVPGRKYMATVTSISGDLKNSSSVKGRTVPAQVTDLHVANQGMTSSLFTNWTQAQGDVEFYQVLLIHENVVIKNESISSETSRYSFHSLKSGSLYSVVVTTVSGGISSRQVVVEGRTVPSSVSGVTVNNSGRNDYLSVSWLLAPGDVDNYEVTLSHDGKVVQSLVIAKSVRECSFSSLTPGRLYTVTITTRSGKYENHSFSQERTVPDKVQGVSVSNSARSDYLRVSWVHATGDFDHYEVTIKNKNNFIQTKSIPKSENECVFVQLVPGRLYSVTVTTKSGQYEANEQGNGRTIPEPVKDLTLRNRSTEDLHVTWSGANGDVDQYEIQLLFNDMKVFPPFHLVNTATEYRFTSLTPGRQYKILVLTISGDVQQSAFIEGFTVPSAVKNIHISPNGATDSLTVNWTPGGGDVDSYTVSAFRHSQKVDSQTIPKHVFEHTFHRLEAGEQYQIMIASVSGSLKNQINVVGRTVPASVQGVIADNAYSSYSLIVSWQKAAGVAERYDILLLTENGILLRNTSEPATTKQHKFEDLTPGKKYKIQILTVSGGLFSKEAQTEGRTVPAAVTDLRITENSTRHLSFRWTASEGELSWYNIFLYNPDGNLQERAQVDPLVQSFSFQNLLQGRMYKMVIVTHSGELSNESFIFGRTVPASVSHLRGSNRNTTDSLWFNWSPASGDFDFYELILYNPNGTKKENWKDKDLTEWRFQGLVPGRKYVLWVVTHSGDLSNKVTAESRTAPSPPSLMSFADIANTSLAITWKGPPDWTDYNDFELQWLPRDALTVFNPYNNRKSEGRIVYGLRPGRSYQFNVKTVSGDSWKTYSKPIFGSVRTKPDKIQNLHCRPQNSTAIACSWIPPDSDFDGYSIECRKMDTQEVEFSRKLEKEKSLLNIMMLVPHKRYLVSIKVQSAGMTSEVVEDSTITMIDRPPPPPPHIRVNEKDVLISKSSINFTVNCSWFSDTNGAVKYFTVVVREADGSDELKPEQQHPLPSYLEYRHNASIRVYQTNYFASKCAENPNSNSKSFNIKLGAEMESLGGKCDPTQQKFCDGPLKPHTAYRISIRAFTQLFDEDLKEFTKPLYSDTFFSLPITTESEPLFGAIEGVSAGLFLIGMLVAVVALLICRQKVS

S/N (median BiFC/DeepRed ratio over that of the negative pairing) [1] | fold mean BiFC value over controls [1] [fold] | S/N (median BiFC/DeepRed ratio of the positive pairing over that of the negative pairing bJun/bΔFos) (bFos BiFC construct) | fold difference in mean BiFC fluorescence intensity over bJun/bΔFos (bFos BiFC construct) [fold] | Molecule
6.5 | 2 to 3 | – | – | VE-PTP-VN (vascular endothelial protein tyrosine phosphatase, ectodomain and transmembrane domain, fused to the N-terminal Venus fragment) (domain or fragment)
– | – | 7.7 | 6 | bJun BiFC construct (domain or fragment, UniProt P05412 257-318, looked up, transcription factor Jun, the construct called bJun) RKRMRNRIAASKCRKRKLERIARLEEKVKTLKAQNSELASTANMLREQVAQLKQKVMNHVNS
